In patent US20250129160A1:

Assays:
[1] = target: cynomolgus monkey CCR8 (Chinese origin) (cynomolgus monkey); assay: flow cytometry on Cy CCR8+ CHO
[2] = target: CCR8 P_1-12 peptide construct (human); assay: flow cytometry, peptide construct on streptavidin beads
[3] = target: T1, CCR8 P_25-35 peptide construct (human); assay: as above
T1 sequence (chain, BAP biotinylated in vivo): CDAELIQTNGK

[4] = target: CCR8 P_1-35 peptide construct (full-length N-terminal peptide of human CCR8) (human); assay: as above
[5] = target: CCR8 P_7-18 peptide construct (human); assay: as above
[6] = target: CCR8 P_19-30 peptide construct (human); assay: as above
[7] = target: CCR8 P_13-24 peptide construct (human); assay: as above
[8] = target: cynomolgus monkey CCR8 (T4R), Mauritian origin (cynomolgus monkey); assay: flow cytometry on Cy CCR8 (T4R)+ CHO
Chain of cynomolgus monkey CCR8 (T4R), Mauritian origin (cynomolgus monkey) (O97665 other isoform, or with tags, fused parts or gaps): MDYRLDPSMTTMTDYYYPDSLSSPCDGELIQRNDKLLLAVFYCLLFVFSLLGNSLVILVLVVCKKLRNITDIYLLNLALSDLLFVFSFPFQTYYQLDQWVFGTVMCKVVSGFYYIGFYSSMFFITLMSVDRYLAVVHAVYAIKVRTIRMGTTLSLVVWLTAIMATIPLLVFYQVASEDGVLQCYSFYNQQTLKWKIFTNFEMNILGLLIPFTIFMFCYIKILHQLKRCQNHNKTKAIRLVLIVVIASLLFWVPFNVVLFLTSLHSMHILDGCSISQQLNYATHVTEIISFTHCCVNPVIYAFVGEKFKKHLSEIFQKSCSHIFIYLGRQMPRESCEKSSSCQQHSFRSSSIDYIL

[9] = target: human CD3 (human) (UniProt P07766); assay: flow cytometry on HUT-78 (CCR8+/CD3+)
Chain of human CD3 (human) (P07766 23-207): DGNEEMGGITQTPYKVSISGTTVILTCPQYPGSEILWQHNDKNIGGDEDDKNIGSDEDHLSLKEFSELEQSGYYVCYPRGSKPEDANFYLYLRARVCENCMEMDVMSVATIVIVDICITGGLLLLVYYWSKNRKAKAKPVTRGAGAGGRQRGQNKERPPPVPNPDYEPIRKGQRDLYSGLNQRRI

[10] = target: human CD3 (human) (UniProt P07766); assay: flow cytometry on HPB-all
[11] = target: cynomolgus CD3 (cynomolgus) (UniProt Q95LI5); assay: flow cytometry on LnPx4119
Chain of cynomolgus CD3 (cynomolgus) (Q95LI5 22-198): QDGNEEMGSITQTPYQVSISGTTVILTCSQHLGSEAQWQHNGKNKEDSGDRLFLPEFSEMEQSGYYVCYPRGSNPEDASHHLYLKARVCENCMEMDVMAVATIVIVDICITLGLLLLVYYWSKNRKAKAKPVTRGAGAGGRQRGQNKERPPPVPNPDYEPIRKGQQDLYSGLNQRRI

[12] = target: human CCR8 (human) (UniProt P51685); assay: flow cytometry on HUT-78 (CCR8+/CD3+)
[13] = target: human CCR8 (human) (UniProt P51685); assay: flow cytometry on HUT-78 (CCR8+/CD3-)
[14] = target: human CCR8 (human) (UniProt P51685); assay: flow cytometry on hu CCR8+ CHO

Chain of anti-CCR8 antibody clone 433H (BD 747578) (VH): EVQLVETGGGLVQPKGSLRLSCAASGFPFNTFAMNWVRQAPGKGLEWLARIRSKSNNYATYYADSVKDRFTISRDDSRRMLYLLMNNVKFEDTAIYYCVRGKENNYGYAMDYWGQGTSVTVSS
Chain of anti-CCR8 antibody clone 433H (BD 747578) (VL): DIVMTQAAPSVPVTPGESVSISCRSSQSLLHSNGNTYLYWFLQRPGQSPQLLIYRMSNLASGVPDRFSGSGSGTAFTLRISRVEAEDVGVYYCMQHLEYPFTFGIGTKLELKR
Chain of cynomolgus monkey CCR8 (Chinese origin) (cynomolgus monkey) (O97665 other isoform, or with tags, fused parts or gaps): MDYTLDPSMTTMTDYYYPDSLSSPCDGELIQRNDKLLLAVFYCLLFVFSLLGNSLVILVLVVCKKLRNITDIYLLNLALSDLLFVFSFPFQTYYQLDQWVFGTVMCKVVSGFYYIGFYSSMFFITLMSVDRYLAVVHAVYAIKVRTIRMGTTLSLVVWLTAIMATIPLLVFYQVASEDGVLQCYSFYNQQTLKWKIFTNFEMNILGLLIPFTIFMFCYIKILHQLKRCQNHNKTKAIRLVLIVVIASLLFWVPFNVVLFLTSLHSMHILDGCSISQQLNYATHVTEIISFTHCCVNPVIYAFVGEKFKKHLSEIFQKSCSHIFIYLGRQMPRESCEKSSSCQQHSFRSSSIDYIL

mean BL2 of the sample/mean BL2 of the secondary antibody control [1]	Median Fluorescence of Sample/Median Fluorescence of Negative Control [2]	Median Fluorescence of Sample/Median Fluorescence of Negative Control [3]	Median Fluorescence of Sample/Median Fluorescence of Negative Control [4]	Median Fluorescence of Sample/Median Fluorescence of Negative Control [5]	Median Fluorescence of Sample/Median Fluorescence of Negative Control [6]	Median Fluorescence of Sample/Median Fluorescence of Negative Control [7]	mean BL2 of the sample/mean BL2 of the secondary antibody control [8]	mean BL2 of the sample/mean BL2 of the secondary antibody control [9]	mean BL2 of the sample/mean BL2 of the secondary antibody control [10]	mean BL2 of the sample/mean BL2 of the secondary antibody control [11]	mean BL2 of the sample/mean BL2 of the secondary antibody control [12]	mean BL2 of the sample/mean BL2 of the secondary antibody control [13]	mean BL2 of the sample/mean BL2 of the secondary antibody control [14]	Substance
136	0.9	0.9	290	0.9	0.9	300	106							anti-CCR8 antibody clone 433H (BD 747578)
	1090	1090	953	1090	1020	1300								anti-V5 antibody (clone SV5-Pk1; AbD Serotec, MCA 1360)
								72	398	75				control TCE molecule (CD3-based TCE molecule recognizing an irrelevant target antigen) (bispecific antibody)
	596	582	522	589	590	628								anti-FLAG antibody (clone M2, Sigma F3165/F1804)
	0.9	0.9	751	0.9	0.9	285					9	6	40	anti-CCR8 antibody clone L263G8 (BioLegend, 360602)
